Reference: patent publication US20080293081A1, “Fluorescence Polarization Assays for Acetyltransferase/Deacetylase Activity” (Sirtris Pharmaceuticals, Inc., priority 2005, published 2008)
No end group written: not given here.

How the values were obtained:
SIRT1 = molecular target: T1, SIRT1 (Homo sapiens, UniProt Q96EB6); settings: Km of NAD with the named peptide substrate; Sirt1, FRET, Marcotte et al.; cited from earlier work
T1 sequence (Q96EB6 1-747): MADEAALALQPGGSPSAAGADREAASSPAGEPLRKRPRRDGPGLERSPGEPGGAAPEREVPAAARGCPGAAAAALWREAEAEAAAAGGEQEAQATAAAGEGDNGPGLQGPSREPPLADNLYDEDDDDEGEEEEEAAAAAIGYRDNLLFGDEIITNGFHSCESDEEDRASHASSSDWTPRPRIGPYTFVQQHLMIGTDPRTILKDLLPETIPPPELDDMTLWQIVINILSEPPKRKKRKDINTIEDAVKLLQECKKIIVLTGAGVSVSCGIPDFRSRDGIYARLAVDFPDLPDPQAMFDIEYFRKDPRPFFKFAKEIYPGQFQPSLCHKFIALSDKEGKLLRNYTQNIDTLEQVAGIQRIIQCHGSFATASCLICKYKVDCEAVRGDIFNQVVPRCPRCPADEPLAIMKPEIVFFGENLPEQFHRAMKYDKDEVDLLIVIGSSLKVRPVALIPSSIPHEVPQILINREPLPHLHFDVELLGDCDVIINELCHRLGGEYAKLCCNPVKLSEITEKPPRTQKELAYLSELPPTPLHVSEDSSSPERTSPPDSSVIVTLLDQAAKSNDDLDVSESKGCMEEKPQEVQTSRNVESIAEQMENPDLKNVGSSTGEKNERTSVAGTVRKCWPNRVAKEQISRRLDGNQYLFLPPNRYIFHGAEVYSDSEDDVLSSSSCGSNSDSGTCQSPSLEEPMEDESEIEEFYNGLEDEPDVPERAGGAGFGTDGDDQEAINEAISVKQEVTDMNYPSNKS

Sirt2 = molecular target: T2, Sirt2 (Homo sapiens, UniProt Q8IXJ6); settings: Km of NAD with the named peptide substrate; Sirt2, FRET, Marcotte et al.; cited from earlier work
T2 sequence (Q8IXJ6 1-389): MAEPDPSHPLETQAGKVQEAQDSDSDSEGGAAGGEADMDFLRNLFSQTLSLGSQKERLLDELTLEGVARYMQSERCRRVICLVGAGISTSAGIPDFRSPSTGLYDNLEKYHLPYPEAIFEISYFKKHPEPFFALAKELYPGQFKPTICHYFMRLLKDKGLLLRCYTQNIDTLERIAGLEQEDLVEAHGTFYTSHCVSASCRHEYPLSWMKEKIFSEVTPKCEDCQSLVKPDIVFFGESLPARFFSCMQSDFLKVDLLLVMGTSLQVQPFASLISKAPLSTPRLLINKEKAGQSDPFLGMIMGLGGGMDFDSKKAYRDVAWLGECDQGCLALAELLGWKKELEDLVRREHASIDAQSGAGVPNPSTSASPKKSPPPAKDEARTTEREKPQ

[1] = molecular target: T3, Ac-EE-K(biotin)-GQSTSSHS-K(Ac)-Nle-STEG-K(5-TMR)-EE-NH2
T3 chain: GQSTSSHSKXSTEGKEE

[2] = molecular target: T4, Biotin-Nle-PSD-K(Ac)-TIGG-K(MR121)-NH2
T4 chain: XPSDKTIGGK

p53 20 mer (aa 372-387) *FL: p53 20 mer (aa 372-387) peptide substrate with fluorescent label, FRET assay of Marcotte et al. (KKGQSTSRHKKLMFKT; also: fluorescent label, position not given here; UniProt P04637 372-387, looked up, fragment)
Km (SIRT1): 90 µM
Km (Sirt2): 42 µM

B1: SIRT1 (protein)
chain: MADEAALALQPGGSPSAAGADREAASSPAGEPLRKRPRRDGPGLERSPGEPGGAAPEREVPAAARGCPGAAAAALWREAEAEAAAAGGEQEAQATAAAGEGDNGPGLQGPSREPPLADNLYDEDDDDEGEEEEEAAAAAIGYRDNLLFGDEIITNGFHSCESDEEDRASHASSSDWTPRPRIGPYTFVQQHLMIGTDPRTILKDLLPETIPPPELDDMTLWQIVINILSEPPKRKKRKDINTIEDAVKLLQECKKIIVLTGAGVSVSCGIPDFRSRDGIYARLAVDFPDLPDPQAMFDIEYFRKDPRPFFKFAKEIYPGQFQPSLCHKFIALSDKEGKLLRNYTQNIDTLEQVAGIQRIIQCHGSFATASCLICKYKVDCEAVRGDIFNQVVPRCPRCPADEPLAIMKPEIVFFGENLPEQFHRAMKYDKDEVDLLIVIGSSLKVRPVALIPSSIPHEVPQILINREPLPHLHFDVELLGDCDVIINELCHRLGGEYAKLCCNPVKLSEITEKPPRTQKELAYLSELPPTPLHVSEDSSSPERTSPPDSSVIVTLLDQAAKSNDDLDVSESKGCMEEKPQEVQTSRNVESIAEQMENPDLKNVGSSTGEKNERTSVAGTVRKCWPNRVAKEQISRRLDGNQYLFLPPNRYIFHGAEVYSDSEDDVLSSSSCGSNSDSGTCQSPSLEEPMEDESEIEEFYNGLEDEPDVPERAGGAGFGTDGDDQEAINEAISVKQEVTDMNYPSNKS
Peptide Km (uM), fluorescent polarization deacetylase assay [1]: 7.8 µM

B2: Human SIRT2 enzyme (protein)
chain: MAEPDPSHPLETQAGKVQEAQDSDSDSEGGAAGGEADMDFLRNLFSQTLSLGSQKERLLDELTLEGVARYMQSERCRRVICLVGAGISTSAGIPDFRSPSTGLYDNLEKYHLPYPEAIFEISYFKKHPEPFFALAKELYPGQFKPTICHYFMRLLKDKGLLLRCYTQNIDTLERIAGLEQEDLVEAHGTFYTSHCVSASCRHEYPLSWMKEKIFSEVTPKCEDCQSLVKPDIVFFGESLPARFFSCMQSDFLKVDLLLVMGTSLQVQPFASLISKAPLSTPRLLINKEKAGQSDPFLGMIMGLGGGMDFDSKKAYRDVAWLGECDQGCLALAELLGWKKELEDLVRREHASIDAQSGAGVPNPSTSASPKKSPPPAKDEARTTEREKPQ
Peptide Km (uM), fluorescent polarization deacetylase assay [2]: 50 µM
